Measured values taken from patent US20260015418A1.

Target: human 4-1BB on Jurkat cells (Promega) (human) (UniProt Q07011)
Test: cell-based or functional assay

human 4-1BB on Jurkat cells (Promega) (human), sequence (Q07011 24-255): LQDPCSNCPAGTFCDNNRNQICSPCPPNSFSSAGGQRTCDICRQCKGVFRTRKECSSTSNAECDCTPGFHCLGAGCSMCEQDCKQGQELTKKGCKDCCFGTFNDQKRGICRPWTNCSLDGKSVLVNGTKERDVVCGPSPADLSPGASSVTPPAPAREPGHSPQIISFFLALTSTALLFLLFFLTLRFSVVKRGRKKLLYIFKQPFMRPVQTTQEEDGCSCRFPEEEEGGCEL

- EC50 (nM), 4-1BB NFκB luciferase reporter bioassay, CHO-hROR1 100%: 0.235 nM
Substance: Urelumab (BMS-663513) (antibody)
